For assay [1], the target named is human α5β1 integrin (human) (UniProt P08648). The experiment in a line: FACS on human α5β1-transfected 300.19 cells, 2.0 ug/mL.
Assay [2] has as its target β1 chain (integrin β1) (human) (UniProt P05556). In words: FACS on HT29 cells, isotype control; Gt anti Mouse alone 2.52.
Assay [3] has as its target Macaque α5β1 (Macaque). The experiment in a line: FACS on macaque T-cells, isotype control; Goat anti Mouse IgGFc Cy5 alone 2.
For assay [4], the target named is human α5β1 integrin (human) (UniProt P08648). The experiment in a line: FACS on human α5β1-transfected against untransfected 300.19 cells, 2.0 ug/mL.
The target of another assay is αvβ6 integrin (UniProt P06756). In words: FACS on HT29 cells, positive control; Gt anti Mouse alone 2.52.
The target of assay [5] is Macaque α5β1 (Macaque). The experiment in a line: FACS on macaque T-cells, isotype control; Goat anti Human IgG Fc Cy5 alone 3.
The target of assay [6] is β1 chain (integrin β1) (human) (UniProt P05556). The experiment in a line: FACS on HT29 cells, isotype control; human secondary 2.8.
For assay [7] the target is unchanged. The experiment in a line: FACS on HT29 cells; Gt anti Mouse alone 2.52.
In assay [8] the target is Macaque β1 chain (Macaque). In words: FACS on macaque T-cells; Goat anti Mouse IgGFc Cy5 alone 2.
Assay [9] deals with human α5β1 integrin (human) (UniProt P08648). In words: FACS on human α5β1-transfected 300.19 cells, 0.2 ug/mL.
Assay [10] shares this target. In words: FACS on human α5β1-transfected 300.19 cells, 0.02 ug/mL.
Assay [11] concerns the target β1 chain (integrin β1) (human) (UniProt P05556). In words: FACS on HT29 cells (α5 null, β1 present); Gt anti Mouse alone 2.52.
In assay [12] the target is human α5β1 integrin (human) (UniProt P08648). In words: FACS on human α5β1-transfected against untransfected 300.19 cells, 0.2 ug/mL.
Assay [13] shares this target. The experiment in a line: FACS on human α5β1-transfected against untransfected 300.19 cells, 0.02 ug/mL.
Assay [14] has as its target Macaque αv chain (Macaque). The experiment in a line: FACS on macaque T-cells; Goat anti Mouse IgGFc Cy5 alone 2.
A further assay has as its target αv integrin chain (UniProt P06756). The experiment in a line: FACS on HT29 cells, positive control; Gt anti Mouse alone 2.52.

human α5β1 integrin (human), sequence (P08648 42-1049, chain 1 of 2): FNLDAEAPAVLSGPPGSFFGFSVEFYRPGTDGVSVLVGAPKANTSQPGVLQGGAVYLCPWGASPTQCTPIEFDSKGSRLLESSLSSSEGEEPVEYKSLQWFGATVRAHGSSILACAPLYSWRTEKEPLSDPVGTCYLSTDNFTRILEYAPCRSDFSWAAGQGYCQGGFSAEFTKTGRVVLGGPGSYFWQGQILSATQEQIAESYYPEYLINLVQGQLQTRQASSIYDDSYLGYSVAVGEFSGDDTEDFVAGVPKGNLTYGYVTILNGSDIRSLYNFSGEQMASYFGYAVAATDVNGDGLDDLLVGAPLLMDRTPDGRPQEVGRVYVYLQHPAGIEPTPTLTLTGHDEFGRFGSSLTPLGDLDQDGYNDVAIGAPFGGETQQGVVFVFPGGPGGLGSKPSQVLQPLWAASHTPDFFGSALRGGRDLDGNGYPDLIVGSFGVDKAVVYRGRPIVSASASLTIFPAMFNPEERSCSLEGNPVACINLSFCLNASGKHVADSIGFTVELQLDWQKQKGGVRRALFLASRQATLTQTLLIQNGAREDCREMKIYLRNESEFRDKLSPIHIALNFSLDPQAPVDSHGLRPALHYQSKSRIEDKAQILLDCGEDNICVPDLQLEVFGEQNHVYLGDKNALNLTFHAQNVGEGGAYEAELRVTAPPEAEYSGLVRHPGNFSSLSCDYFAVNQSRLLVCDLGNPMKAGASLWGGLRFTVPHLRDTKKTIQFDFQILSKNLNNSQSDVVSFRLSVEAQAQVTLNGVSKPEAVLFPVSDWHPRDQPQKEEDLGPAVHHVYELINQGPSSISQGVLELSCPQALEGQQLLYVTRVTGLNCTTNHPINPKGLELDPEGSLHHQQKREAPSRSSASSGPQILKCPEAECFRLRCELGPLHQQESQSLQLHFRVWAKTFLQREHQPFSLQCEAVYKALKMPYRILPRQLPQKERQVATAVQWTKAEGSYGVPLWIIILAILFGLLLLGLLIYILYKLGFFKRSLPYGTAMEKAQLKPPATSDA
human α5β1 integrin (human), sequence (P05556 21-798, chain 2 of 2, further chain): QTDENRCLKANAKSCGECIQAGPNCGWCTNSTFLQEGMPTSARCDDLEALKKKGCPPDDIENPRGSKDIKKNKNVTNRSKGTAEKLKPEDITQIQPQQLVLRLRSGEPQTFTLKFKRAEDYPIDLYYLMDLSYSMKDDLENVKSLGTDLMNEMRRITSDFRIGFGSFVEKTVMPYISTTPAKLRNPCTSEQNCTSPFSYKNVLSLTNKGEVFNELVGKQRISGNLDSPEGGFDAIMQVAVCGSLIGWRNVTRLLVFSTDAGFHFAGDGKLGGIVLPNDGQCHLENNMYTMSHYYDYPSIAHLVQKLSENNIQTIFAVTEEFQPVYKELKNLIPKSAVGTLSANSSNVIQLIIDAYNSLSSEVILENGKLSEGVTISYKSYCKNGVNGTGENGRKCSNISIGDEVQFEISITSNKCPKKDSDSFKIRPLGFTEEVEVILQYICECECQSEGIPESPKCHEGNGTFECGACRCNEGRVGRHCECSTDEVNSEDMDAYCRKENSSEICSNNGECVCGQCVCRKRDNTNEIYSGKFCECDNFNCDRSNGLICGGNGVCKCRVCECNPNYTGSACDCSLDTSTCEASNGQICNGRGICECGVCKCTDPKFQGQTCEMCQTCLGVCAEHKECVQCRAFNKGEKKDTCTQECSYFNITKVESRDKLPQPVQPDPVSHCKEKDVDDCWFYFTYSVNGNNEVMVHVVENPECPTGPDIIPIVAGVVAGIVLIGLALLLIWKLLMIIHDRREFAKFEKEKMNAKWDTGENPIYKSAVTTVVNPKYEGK
β1 chain (integrin β1) (human), sequence (P05556 21-798): as the sequence (P05556 21-798, chain 2 of 2, further chain) above
αvβ6 integrin, sequence (P06756 31-1048, chain 1 of 2): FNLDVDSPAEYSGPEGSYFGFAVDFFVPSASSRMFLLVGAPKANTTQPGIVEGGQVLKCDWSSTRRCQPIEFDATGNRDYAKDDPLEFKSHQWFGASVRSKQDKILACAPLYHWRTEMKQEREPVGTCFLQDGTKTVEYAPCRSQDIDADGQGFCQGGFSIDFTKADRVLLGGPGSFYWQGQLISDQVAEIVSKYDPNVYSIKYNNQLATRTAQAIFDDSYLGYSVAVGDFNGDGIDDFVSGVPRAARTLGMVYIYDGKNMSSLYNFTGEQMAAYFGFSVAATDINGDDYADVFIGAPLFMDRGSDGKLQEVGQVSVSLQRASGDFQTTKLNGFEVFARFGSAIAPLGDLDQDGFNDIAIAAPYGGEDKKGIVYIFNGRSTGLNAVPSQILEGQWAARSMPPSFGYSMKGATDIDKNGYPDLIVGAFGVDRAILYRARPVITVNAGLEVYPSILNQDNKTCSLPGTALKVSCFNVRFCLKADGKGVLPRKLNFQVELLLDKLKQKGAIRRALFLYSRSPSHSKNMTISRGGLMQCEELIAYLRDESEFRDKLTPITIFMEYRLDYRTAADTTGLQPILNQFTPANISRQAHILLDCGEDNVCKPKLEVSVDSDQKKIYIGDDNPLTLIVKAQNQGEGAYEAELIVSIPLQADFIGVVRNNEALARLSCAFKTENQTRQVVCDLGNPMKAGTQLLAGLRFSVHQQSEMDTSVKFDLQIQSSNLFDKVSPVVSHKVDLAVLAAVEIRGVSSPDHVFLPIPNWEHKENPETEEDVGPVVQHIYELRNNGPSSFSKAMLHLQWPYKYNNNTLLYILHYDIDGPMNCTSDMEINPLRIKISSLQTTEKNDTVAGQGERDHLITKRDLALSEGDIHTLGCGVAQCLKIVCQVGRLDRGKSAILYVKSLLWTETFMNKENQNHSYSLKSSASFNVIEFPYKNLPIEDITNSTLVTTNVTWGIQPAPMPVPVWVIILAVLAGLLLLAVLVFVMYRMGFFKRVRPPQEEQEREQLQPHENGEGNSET
αvβ6 integrin, sequence (P18564 22-788, chain 2 of 2, further chain): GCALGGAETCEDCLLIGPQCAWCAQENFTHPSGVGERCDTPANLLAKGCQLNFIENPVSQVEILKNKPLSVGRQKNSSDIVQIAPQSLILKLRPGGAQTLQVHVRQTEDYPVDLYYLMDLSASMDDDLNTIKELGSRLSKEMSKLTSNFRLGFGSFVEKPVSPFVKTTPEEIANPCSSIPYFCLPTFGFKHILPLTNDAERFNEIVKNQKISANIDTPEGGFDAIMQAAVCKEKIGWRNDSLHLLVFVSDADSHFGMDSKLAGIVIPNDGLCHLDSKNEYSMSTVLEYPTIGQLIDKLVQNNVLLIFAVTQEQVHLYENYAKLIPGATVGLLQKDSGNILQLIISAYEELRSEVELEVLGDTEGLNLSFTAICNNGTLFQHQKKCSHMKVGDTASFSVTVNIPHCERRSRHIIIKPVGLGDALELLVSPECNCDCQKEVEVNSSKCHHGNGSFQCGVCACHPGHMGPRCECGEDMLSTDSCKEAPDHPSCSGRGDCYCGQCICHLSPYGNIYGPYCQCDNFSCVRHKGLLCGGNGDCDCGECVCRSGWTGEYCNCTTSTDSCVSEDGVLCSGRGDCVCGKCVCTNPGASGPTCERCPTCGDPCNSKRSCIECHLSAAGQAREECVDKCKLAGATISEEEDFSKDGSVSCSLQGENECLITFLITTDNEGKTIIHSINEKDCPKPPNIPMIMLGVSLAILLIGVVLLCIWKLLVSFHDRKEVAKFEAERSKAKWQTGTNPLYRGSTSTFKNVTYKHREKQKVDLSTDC
αv integrin chain, sequence (P06756 31-1048 limits assumed): as the sequence (P06756 31-1048, chain 1 of 2) above

Regarding Mouse IgG1 (antibody), the X Geo Mean in assay [1] is 14.9. In assay [2], this substance displayed a Binding Geomean of 2.55. Also, the Geo Mean on Macaque T-cells IgG detection in the assay with Macaque α5β1 (Macaque) [3] came to 2. Further, the Ratio (α5β1 expressing B300.19 cells against B300.19 cells) in assay [4] turned out to be 0.9.
In turn, MAB2077Z (antibody) gave a Binding Geomean in the assay with αvβ6 integrin of 39.2.
Take Human IgG2/4 (antibody): in the assay with Macaque α5β1 (Macaque) [5], the Geo Mean on Macaque T-cells IgG detection was found to be 3.
Turning to Human IgG4 (antibody), in assay [6], the Binding Geomean was 3.2.
4B4 (antibody) displayed a Binding Geomean in assay [7] of 362. Also, the Geo Mean on Macaque T-cells IgG detection in [8] worked out at 141.
For mAb 1969 (antibody), the X Geo Mean in [9] was 152; in assay [1], 194; in assay [10], 45.1. For the same substance, the Binding Geomean in assay [11] came to 2.69. The values for the Ratio (α5β1 expressing B300.19 cells against B300.19 cells) in assay [12], in assay [4] and in assay [13] were 6.9, 9.5 and 2.5, respectively.
Substance Mouse IgG2a (antibody) showed a Binding Geomean in assay [2] of 10.2.
For Human IgG2 (antibody), the X Geo Mean in assay [1] is 12. The substance also registered a Binding Geomean in assay [6] of 2.84. Also, the Ratio (α5β1 expressing B300.19 cells against B300.19 cells) in assay [4] is 0.8.
Turning to L230 (antibody), the Geo Mean on Macaque T-cells IgG detection in assay [14] is 3. The substance also showed a Binding Geomean with αv integrin chain of 294.
